# Results reported in article PMC7374751, “TIMP-3 facilitates binding of target metalloproteinases to the endocytic receptor LRP-1 and promotes scavenging of MMP-1” (Scientific Reports, 2020).
# T1: FLAG-tagged ADAMTS-4 lacking the C-terminal spacer domain (ADAMTS4-2) (UniProt O75173 213-685)
# T1 construct: ADAMTS-4 lacking the C-terminal spacer domain
# T1 sequence (looked up): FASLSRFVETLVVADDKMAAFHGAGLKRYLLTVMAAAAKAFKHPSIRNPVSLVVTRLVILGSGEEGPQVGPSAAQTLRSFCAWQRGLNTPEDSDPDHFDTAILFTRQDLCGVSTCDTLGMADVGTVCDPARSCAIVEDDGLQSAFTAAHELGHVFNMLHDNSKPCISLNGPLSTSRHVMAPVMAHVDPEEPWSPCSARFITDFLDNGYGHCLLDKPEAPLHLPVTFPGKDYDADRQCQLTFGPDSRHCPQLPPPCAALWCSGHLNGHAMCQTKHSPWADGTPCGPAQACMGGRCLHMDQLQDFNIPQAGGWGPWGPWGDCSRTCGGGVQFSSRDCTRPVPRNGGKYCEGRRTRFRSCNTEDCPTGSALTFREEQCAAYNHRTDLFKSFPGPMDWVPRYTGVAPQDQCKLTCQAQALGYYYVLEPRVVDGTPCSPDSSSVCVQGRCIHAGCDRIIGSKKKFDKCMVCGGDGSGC
# T2: catalytic domain of human MMP-1 (MMP-1ΔC) (human, UniProt P03956 100-269)
# T2 construct: catalytic domain of human MMP-1 (lacks the hemopexin domain); pro-domain removed with APMA
# T2 sequence (looked up): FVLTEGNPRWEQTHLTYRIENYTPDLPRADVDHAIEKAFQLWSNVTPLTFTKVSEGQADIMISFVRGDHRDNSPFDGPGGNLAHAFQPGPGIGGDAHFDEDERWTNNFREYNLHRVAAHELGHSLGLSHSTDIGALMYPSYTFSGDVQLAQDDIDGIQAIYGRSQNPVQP
# Assays:
# Experiment in all cases: enzyme inhibition kinetics (fluorogenic peptide substrates); apparent Ki; enzyme pre-incubated with TIMP-3 (0.5-100 nM) 1 h at 37 °C, equilibrium rate of substrate hydrolysis; TNC buffer (50 mM Tris-HCl pH 7.5, 150 mM NaCl, 10 mM CaCl2, 0.05% Brij-35, 0.02% NaN3), 37 °C; tight-binding equation
# Conditions in all cases: both partners purified
# [1] = biological target: T3, MMP-3 catalytic domain (MMP-3ΔC) (UniProt P08254 100-272)
# T3 construct: catalytic domain of MMP-3; pro-domain removed with APMA
# [2] = biological target: T1, FLAG-tagged ADAMTS-4 lacking the …
# ADAM17 ectodomain = biological target: T4, ADAM17 ectodomain (UniProt P78536 215-671)
# T4 construct: ADAM17 ectodomain from R&D Systems; source: bought: R&D Systems
# [3] = biological target: T2, catalytic domain of human MMP-1 …
# T4 sequence (P78536 215-671): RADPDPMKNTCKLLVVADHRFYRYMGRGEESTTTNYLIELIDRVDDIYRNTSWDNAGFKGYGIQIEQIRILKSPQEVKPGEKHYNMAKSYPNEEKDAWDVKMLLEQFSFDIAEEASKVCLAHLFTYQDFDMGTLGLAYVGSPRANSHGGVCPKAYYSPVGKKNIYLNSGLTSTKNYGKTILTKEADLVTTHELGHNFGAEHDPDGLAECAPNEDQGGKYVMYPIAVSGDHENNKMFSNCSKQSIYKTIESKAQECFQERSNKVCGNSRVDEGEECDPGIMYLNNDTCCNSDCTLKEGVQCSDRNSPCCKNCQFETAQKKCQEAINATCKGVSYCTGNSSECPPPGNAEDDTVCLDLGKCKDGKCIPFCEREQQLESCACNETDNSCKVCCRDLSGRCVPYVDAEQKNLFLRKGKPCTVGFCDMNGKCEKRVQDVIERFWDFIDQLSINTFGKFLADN
# T3 sequence (P08254 100-272, stated change not applied): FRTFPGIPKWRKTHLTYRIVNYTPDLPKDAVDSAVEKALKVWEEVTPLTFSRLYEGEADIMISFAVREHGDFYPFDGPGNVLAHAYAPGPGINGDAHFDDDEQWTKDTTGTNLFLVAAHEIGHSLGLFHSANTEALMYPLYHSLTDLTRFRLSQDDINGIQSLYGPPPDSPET
binder,measurement,setting,value
"FLAG-tagged TIMP-3 (natural protein, UniProt P35625 24-211, looked up, also called T3; [35S]TIMP-3) CTCSPSHPQDAFCNSDIVIRAKVVGKKLVKEGPFGTLVYTIKQMKMYRGFTKMPHVQYIHTEASESLCGLKLEVNKYQYLLTGRVYDGKMYTGLCNFVERWDQLTLSQRKGLNYRYHLGCNCKIKSCYYLPCFVTSKNECLWTDMLSNFGYPGYQSKHYACIRQKGGYCSWYRGWAPPDKSIINATDP",Ki,[1],0.55 nM
same,Ki,[2],0.124 nM
same,Ki,ADAM17 ectodomain,3.61 nM
same,Ki,[3],1.86 nM
